Results published in patent US20140140998A1 (LUDWIG INSTITUTE FOR CANCER RESEARCH, published 2014).
Changes are numbered by the printed parent chain. Numbers in names are those of the source. Values belong to the binder of their own block, whether it stands above or below them.

Key:
[1] = target: T1, tumor necrosis factor alpha converting enzyme (TACE), endogenous (human, UniProt P78536 215-824); experiment: co-immunofluorescence (co-localisation) in PC-3U cells
T1 construct: whole, on cells; also called ADAM17
Procedure: Panel e: PC-3U cells were treated with or without TGFβ for 30 min as indicated. […] Their colocalization is shown by the yellow color, as shown in merged images. The images on the left are enlarged from the areas enclosed in white boxes in the images to the right. DAPI staining was performed to detect cell nuclei (blue).

[2] = target: Presenilin 1 (PS1), endogenous (human, UniProt P49768 1-467); experiment: co-immunoprecipitation from transfected PC-3U cells

T1 sequence (P78536 215-824): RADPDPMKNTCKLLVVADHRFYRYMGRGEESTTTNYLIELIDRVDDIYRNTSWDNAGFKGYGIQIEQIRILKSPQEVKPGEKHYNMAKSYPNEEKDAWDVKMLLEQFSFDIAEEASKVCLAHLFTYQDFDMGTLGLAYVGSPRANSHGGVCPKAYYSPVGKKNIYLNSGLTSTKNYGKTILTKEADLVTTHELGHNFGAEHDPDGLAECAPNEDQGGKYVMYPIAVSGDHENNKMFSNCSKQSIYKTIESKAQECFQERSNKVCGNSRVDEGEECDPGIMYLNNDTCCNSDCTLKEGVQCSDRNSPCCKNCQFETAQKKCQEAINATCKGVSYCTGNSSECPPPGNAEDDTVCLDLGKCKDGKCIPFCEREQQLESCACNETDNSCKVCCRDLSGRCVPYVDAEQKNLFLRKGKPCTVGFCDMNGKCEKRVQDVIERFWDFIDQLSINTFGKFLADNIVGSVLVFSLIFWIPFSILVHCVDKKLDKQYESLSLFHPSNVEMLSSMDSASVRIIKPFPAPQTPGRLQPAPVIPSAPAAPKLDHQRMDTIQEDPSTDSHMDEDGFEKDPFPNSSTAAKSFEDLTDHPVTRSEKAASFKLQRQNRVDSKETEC

B1: type I receptor of transforming growth factor beta (TβRI), endogenous, full length (receptor)
chain: LQCFCHLCTKDNFTCVTDGLCFVSVTETTDKVIHNSMCIAEIDLIPRDRPFVCAPSSKTGSVTTTYCCNQDHCNKIELPTTVKSSPGLGPVELAAVIAGPVCFVCISLMLMVYICHNRTVIHHRVPNEEDPSLDRPFISEGTTLKDLIYDMTTSGSGSGLPLLVQRTIARTIVLQESIGKGRFGEVWRGKWRGEEVAVKIFSSREERSWFREAEIYQTVMLRHENILGFIAADNKDNGTWTQLWLVSDYHEHGSLFDYLNRYTVTVEGMIKLALSTASGLAHLHMEIVGTQGKPAIAHRDLKSKNILVKKNGTCCIADLGLAVRHDSATDTIDIAPNHRVGTKRYMAPEVLDDSINMKHFESFKRADIYAMGLVFWEIARRCSIGGIHEDYQLPYYDLVPSDPSVEEMRKVVCEQKLRPNIPNRWQSCEALRVMAKIMRECWYANGAARLTALRIKKTLSQLSQQEGIKM
notes: Endogenous receptor of human PC-3U prostate cancer cells, studied in cell lysates, cell fractions and fixed cells; also called TβRI-FL; ALK5
binding result [1]: binds

binding result [2]: no binding
B2: HA-tagged caE161A TβRI mutant (HA-ca E161A) (receptor)
chain: B1 chain with E128A, T171D
notes: Expressed by transient transfection in PC-3U cells; also called HA-E161A; E161A mutant; not shown: HA tag fused to the C-terminus
